Reference: patent publication US20160193281A1 (BLUEBERRY THERAPEUTICS, published 2016)
Where no end group is shown, it is not given here.

B1: BB2702 (N-acetylated peptide HKSRALLIFQKIMWLRRQ) (peptide)
peptide: Ac-HKSRALLIFQKIMWLRRQ
notes: Synthetic peptide, all L-amino acids, peptide bonds throughout, N-acetylated; also called BB2702 peptide

Key:
[1] = target: T1, uniformly 15N,2H-labelled 6His-MAP kinase p38α (human, UniProt Q16539 2-360, limits assumed, uniformly 15N,2H-labelled); assay: NMR 1H-15N TROSY-HSQC titration, chemical shift changes in slow exchange
T1 construct: not shown: 6His tag

p38β = p38β (UniProt Q15759 1-364, limits assumed); assay: cell-based or functional assay
[2] = target: T2, MAP kinase p38α, 6-his C-myc tagged protein expressed in E. coli (human, UniProt Q16539 2-360, limits assumed); assay: cell-based or functional assay
[3] = target: T3, MAP kinase p38α (non-phosphorylated, OH-p38α) as used in the Biacore inhibition in solution assay (human, UniProt Q16539 2-360, limits assumed); assay: Biacore 3000 inhibition in solution assay; p38α pre-incubated with peptide, free p38α captured on immobilised ureidoquinazoline compound; Biacore inhibition in solution assay
T3 construct: The text says the chip was calibrated with nonphosphorylated or phosphorylated p38α; also called MAPK14; SAPK2a

[4] = target: T2, MAP kinase p38α, 6-his C-myc tagged …; assay: biochemical kinase inhibition assay; biochemical enzyme assay, not Biacore
[5] = target: 6 kinases (of the selectivity panel, with slight activity); assay: cell-based or functional assay

T2 sequence (Q16539 2-360 limits assumed): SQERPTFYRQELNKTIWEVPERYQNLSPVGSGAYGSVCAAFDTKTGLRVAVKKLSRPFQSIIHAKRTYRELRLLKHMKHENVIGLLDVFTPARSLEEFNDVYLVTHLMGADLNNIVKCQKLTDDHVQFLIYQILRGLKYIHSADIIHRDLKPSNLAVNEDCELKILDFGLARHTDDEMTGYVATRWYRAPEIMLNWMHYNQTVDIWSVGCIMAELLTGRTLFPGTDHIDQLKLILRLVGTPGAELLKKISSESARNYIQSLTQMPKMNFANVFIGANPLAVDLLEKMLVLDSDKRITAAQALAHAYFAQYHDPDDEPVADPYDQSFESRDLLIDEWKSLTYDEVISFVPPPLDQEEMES
T1 sequence (Q16539 2-360 limits assumed): as above
T3 sequence (Q16539 2-360 limits assumed): as above
p38β, sequence (Q15759 whole entry): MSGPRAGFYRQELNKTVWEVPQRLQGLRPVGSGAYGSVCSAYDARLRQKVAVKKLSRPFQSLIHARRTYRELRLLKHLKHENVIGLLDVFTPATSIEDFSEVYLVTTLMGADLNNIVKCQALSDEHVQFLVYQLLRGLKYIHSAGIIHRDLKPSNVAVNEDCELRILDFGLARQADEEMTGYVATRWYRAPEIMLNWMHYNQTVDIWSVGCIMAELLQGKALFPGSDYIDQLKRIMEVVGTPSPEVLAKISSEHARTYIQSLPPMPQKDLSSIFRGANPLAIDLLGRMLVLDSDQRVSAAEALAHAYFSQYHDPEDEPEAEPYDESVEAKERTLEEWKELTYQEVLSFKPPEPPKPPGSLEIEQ

Binder	Kd [1]	selectivity (kinase inhibition) compared to p38α (p38β)	IC50 (inhibition of MAP kinase p38α) [2]	IC50 for inhibition of the activation of MAP kinase p38α by MKK6 [2]	Kd [3]	Ki [4]	selectivity (kinase inhibition) compared to p38α [5]
B1	< 1000 nM	100 fold	7 nM	1 nM	25 nM	7 nM	
Ac-HKSRALLIFQKIMWLRRQ [BB2702 (N-acetylated peptide …)]							500 to 1000 fold
